Measured values taken from the supplement of paper PMC7877785.
± gives the uncertainty stated by the source.

Assay: self-splicing fitness, log relative to wild type (ln ratio); higher = more splicing; Tetrahymena group I intron in knt gene, E. coli kanamycin selection, DiMSum; sequences stand for … in CUCUCU…GGAGGGAAAAGUUAUCAGGCAUGCACCUGGUAGCUAGUCUUUAAACCAAUAGAUUGCAUCGGUUUAAAAGGCAAGACCGUCAAAUUGCGGGAAAGGGGUCAACAGCCGUUCAGUACCAAGUCUCAGGGGAAACUUUGAGAUGGCCUUGCAAAGGGUAUGGUAAUAAGCUGACGGACAUGGUCCUAACCACGCAGCCAAGUCCUAAGUCAACAGAUCUUCUGUUGAUAUGGAUGCAGUUCACAGACUAAAUGUCGGUCGGGGAAGAUGUAUUCUUCUCAUAAGAUAUAGUCGGACCUCUCCUUAAUGGGAGCUAGCGGAUGAAGUGAUGCAACACUGGAGCCGCUGGGAACUAAUUUGUAUGCGAAAGUAUAUUGAUUAGUUUUGGAGUACUCGUGGUCG
Outline: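 Six replicate transformations of E. coli BL21(DE3) with a pET-22b(+) library were grown overnight at 37°C or 30°C. The library randomised all eight P1ex-region intron nucleotides, the intron lying in the knt kanamycin-resistance gene, and plates were LB agar with or without 25 μg/mL kanamycin plus 100 μg/mL carbenicillin, 50 μM IPTG and 0.2% rhamnose. Pooled colonies were amplicon-sequenced on an Illumina HiSeq 2500, and fitness is the DiMSum error-weighted combination of wild-type-normalised replicate fold changes, kanamycin versus none.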

Sequence | self-splicing fitness (ln) (30 °C) | self-splicing fitness (ln) (37 °C)
GGGAAGCAAUAUUACGCUAC | -2.26 ± 0.3 | -1.84 ± 0.46
CACCAGCAAUAUUACGCGUC | -2.87 ± 0.15 | -0.883 ± 0.12
UGCAAGCAAUAUUACGAUUC | -3.54 ± 0.32 | -1.31 ± 0.21
GUGUAGCAAUAUUACGUCUU | 0.202 ± 0.18 | -0.00398 ± 0.18
AUACAGCAAUAUUACGUACA | -0.262 ± 0.081 | -0.215 ± 0.11
AACGAGCAAUAUUACGCCUC | -2.71 ± 0.28 | -1.53 ± 0.17
AAUGAGCAAUAUUACGUUGU | -3.73 ± 0.14 | -2.89 ± 0.16
CCUGAGCAAUAUUACGUUCG | -3.43 ± 0.26 | -2.87 ± 0.38
UAUUAGCAAUAUUACGGAAU | -4.02 ± 0.33 | -0.66 ± 0.19
UGUUAGCAAUAUUACGUAAC | -1.65 ± 0.46 | -1.55 ± 0.5
AUGUAGCAAUAUUACGCGGC | -4.15 ± 0.4 | -3.45 ± 0.27
GCUUAGCAAUAUUACGAUGC | -1.43 ± 0.13 | -0.976 ± 0.21
CAAAAGCAAUAUUACGAGUU | -3.02 ± 0.15 | -2.46 ± 0.16
GCUAAGCAAUAUUACGGGUG | -1.24 ± 0.069 | 0.116 ± 0.079
GAUCAGCAAUAUUACGCAGU | -1.74 ± 0.083 | -0.88 ± 0.12
CGUAAGCAAUAUUACGUCUU | -3.7 ± 0.22 | -1.37 ± 0.14
CCUGAGCAAUAUUACGGGAG | -4.51 ± 0.27 | -2.65 ± 0.2
UCUGAGCAAUAUUACGCGCG | – | -1.69 ± 0.46
AAUUAGCAAUAUUACGGUUU | -1.16 ± 0.063 | -0.716 ± 0.089

Sequence | self-splicing fitness (ln) (30 °C) | self-splicing fitness (ln) (37 °C)
UACCAGCAAUAUUACGCAAA | -1.54 ± 0.081 | 0.0436 ± 0.096
ACCGAGCAAUAUUACGCAAG | -3.36 ± 0.17 | -2.35 ± 0.18
AACGAGCAAUAUUACGAAGU | -2.75 ± 0.17 | -2.86 ± 0.31
CCUGAGCAAUAUUACGAACC | -3.35 ± 0.3 | –
GUCGAGCAAUAUUACGUGAA | -1.6 ± 0.12 | -1.86 ± 0.17
UCUAAGCAAUAUUACGUCUC | – | -3.38 ± 0.4
ACCGAGCAAUAUUACGUGCU | -3.32 ± 0.25 | -2.49 ± 0.27
GCUCAGCAAUAUUACGUUUU | -1.13 ± 0.056 | 0.00509 ± 0.068
AGACAGCAAUAUUACGGUAA | -2.04 ± 0.11 | -1.37 ± 0.085
CGAAAGCAAUAUUACGUCGG | -0.496 ± 0.06 | -0.0301 ± 0.071
AGGGAGCAAUAUUACGAUUG | -3.9 ± 0.17 | -3.41 ± 0.25
UCUAAGCAAUAUUACGUAAC | -4.19 ± 0.24 | -2.94 ± 0.24
CAGUAGCAAUAUUACGGGUA | -3.45 ± 0.4 | -1.01 ± 0.18
GAACAGCAAUAUUACGGACC | -0.915 ± 0.12 | 0.0387 ± 0.14
AGCUAGCAAUAUUACGCAAU | -1.79 ± 0.19 | -1.77 ± 0.18
CGGAAGCAAUAUUACGGUAC | -3.17 ± 0.27 | -1.93 ± 0.25
GAUCAGCAAUAUUACGGUAU | -0.247 ± 0.068 | -0.46 ± 0.078
ACAUAGCAAUAUUACGGCAA | -0.85 ± 0.09 | -0.569 ± 0.084
AACUAGCAAUAUUACGUAAG | -1.22 ± 0.084 | -1.65 ± 0.11
